According to patent publication US20230250176A1 (DRAGONFLY THERAPEUTICS, published 2023):

Key:
[1] = target: T1, purified recombinant human NKG2D (human, UniProt P26718 78-216, limits assumed); test: SPR (Biacore 8K), 25 C
T1 sequence (looked up): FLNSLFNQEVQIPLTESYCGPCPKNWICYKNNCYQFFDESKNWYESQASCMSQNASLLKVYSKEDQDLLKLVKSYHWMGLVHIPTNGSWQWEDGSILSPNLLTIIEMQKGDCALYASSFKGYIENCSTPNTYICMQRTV

[2] = target: human EGFR (wild type) on cells (human, UniProt P00533 25-1210); test: cell-based or functional assay
[3] = target: human EGFR T790M, L858R on NCI-H1975 cells (human, UniProt P00533 25-1210); test: cell-based or functional assay

B1: EGFR-TriNKET (bispecific antibody, human IgG1, kappa)
chain: DIQMTQSPSSLSASVGDRVTITCQASQDISNYLNWYQQKPGKAPKLLIYDASNLETGVPSRFSGSGSGTDFTFTISSLQPEDIATYYCQHFRHLPLAFGCGTKVEIKGGGGSGGGGSGGGGSGGGGSQVQLQESGPGLVKPSETLSLTCTVSGGSVSSGDYYWTWIRQSPGKCLEWIGHIYYSGNTNYNPRLKSRLTISIDTSKTQFSLKLSSVTAADTAIYYCVRDRVTGAFDIWGQGTMVTVSSGSDKTHTCPPCPAPELLGGPSVFLFPPKPKDTLMISRTPEVTCVVVDVSHEDPEVKFNWYVDGVEVHNAKTKPREEQYNSTYRVVSVLTVLHQDWLNGKEYKCKVSNKALPAPIEKTISKAKGQPREPRVYTLPPCRDELTKNQVSLTCLVKGFYPSDIAVEWESNGQPENNYKTTPPVLVSDGSFTLYSKLTVDKSRWQQGNVFSCSVMHEALHNHYTQKSLSLSPG
heavy: EVQLVESGGGLVKPGGSLRLSCAASGFTFSSYSMNWVRQAPGKGLEWVSSISSSSSYIYYADSVKGRFTISRDNAKNSLYLQMNSLRAEDTAVYYCARGAPIGAAAGWFDPWGQGTLVTVSSASTKGPSVFPLAPSSKSTSGGTAALGCLVKDYFPEPVTVSWNSGALTSGVHTFPAVLQSSGLYSLSSVVTVPSSSLGTQTYICNVNHKPSNTKVDKKVEPKSCDKTHTCPPCPAPELLGGPSVFLFPPKPKDTLMISRTPEVTCVVVDVSHEDPEVKFNWYVDGVEVHNAKTKPREEQYNSTYRVVSVLTVLHQDWLNGKEYKCKVSNKALPAPIEKTISKAKGQPREPQVCTLPPSRDELTENQVSLTCLVKGFYPSDIAVEWESNGQPENNYKTTPPVLDSDGSFFLYSWLTVDKSRWQQGNVFSCSVMHEALHNHYTQKSLSLSPG
light: DIQMTQSPSSVSASVGDRVTITCRASQGISSWLAWYQQKPGKAPKLLIYAASSLQSGVPSRFSGSGSGTDFTLTISSLQPEDFATYYCQQGVSFPRTFGGGTKVEIKRTVAAPSVFIFPPSDEQLKSGTASVVCLLNNFYPREAKVQWKVDNALQSGNSQESVTEQDSKDSTYSLSSTLTLSKADYEKHKVYACEVTHQGLSSPVTKSFNRGEC
notes: also called EGFR-TriNKET-3
Kd [1]: 482000 pM
koff [1]: 0.11 s⁻¹
kon [1]: 230000 M⁻¹ s⁻¹
EC50, long-term NK cell-mediated cytotoxicity (IncuCyte, 72 h, 50% human serum), KYSE-30, NK CD16a F/F (n = 2) [2]: 15 pM
EC50, long-term NK cell-mediated cytotoxicity, 786-O, NK CD16a F/F (n = 2) [2]: 240 pM
EC50, long-term NK cell-mediated cytotoxicity, 786-O, NK CD16a V/F (n = 1) [2]: 150 pM
EC50, long-term NK cell-mediated cytotoxicity, HCT116, NK CD16a F/F (n = 2) [2]: 280 pM
EC50, long-term NK cell-mediated cytotoxicity, HCT116, NK CD16a V/V (n = 1) [2]: 210 pM
EC50, long-term NK cell-mediated cytotoxicity, KYSE-30, NK CD16a V/F (n = 1) [2]: 13 pM
EC50, long-term NK cell-mediated cytotoxicity, NCI-H1975, NK CD16a F/F (n = 2) [3]: 230 pM
EC50, long-term NK cell-mediated cytotoxicity, NCI-H1975, NK CD16a V/F (n = 1) [3]: 90 pM
